The DeepSol protein solubility set

Assay: soluble on expression in E. coli; label from the status in PepcDB or PDB records

Sequence | soluble on expression in E. coli
MGSTSSLYAAIDLGSNSFHMLVVREVAGSIQTLTRIKRKVRLAAGLNSENALSNEAMERGWQCLRLFAERLQDIPPSQIRVVATATLRLAVNAGDFIAKAQEILGCPVQVISGEEEARLIYQGVAHTTGGADQRLVVDIGGASTELVTGTGAQTTSLFSLSMGCVTWLERYFADRNLGQENFDAAEKAAREVLRPVADELRYHGWKVCVGASGTVQALQEIMMAQGMDERITLEKLQQLKQRAIHCGRLEELEIDGLTLERALVFPSGLAILIAIFTELNIQCMTLAGGALREGLVYGMLHLAVEQDIRSRTLRNIQRRFMIDIDQAQRVAKVAANFFDQVENEWHLEAISRDLLISACQLHEIGLSVDFKQAPQHAAYLVRNLDLPGFTPAQKKLLATLLLNQTNPVDLSSLHQQNAVPPRVAEQLCRLLRLAIIFASRRRDDLVPEMTLQANHELLTLTLPQGWLTQHPLGKEIIAQESQWQSYVHWPLEVH | soluble
MSLHSDILVVGAGPAGLSFAAELAGSGLKVTLIERSPLTVLQNPPYDGREIALTHFSREIMQRLGMWDKIPENEIYPLRDAKVLNGRSDYQLHFPQPTEARGEPADCLGYLISNHNIRRAAYEVVSQLDNVSILTDTAVKEVKTSDNEAQVFLENGDILTARLLLAADSRFSQTRRQLGISSDMHDYSRTMFVCRMKHTLSNQHTAYECFHYGRTIALLPLEKRLTNTVITVDTDKINSVQNLSPEELAASVKEQLKGRLGDMELVSSIHHYPLVGMIAKRFYGKRSALIGDAAVGMHPVTAHGFNLGLSSADILAKLILEAEQRGQDIGAASLLEKYSSKHMLHAHPLYHGTNMMLKLFTNETAPAKLLRGLVLRAGNNFPPLKKLITKQLTGLEHHHHHH | soluble
GMARLKNLPQERPLPLASLIEARENQVLSMALAQSDRVQISLFSFADGESVSEEEYFGDTLYLILQGEAVITFDDQKIDLVPEDVLMVPAHKIHAIAGKGRFKMLQITLIDEER | soluble
MTAVTAGKLIGVGVGPGDPELLTVKAVKAIKSADVIVFHAKPNGQSAAHRIAESYIRQDQVLELLEYPVTTGVTEHPGGYAGAMAAFYASVGERLRDHLIEGKNVVVLALGDPMLYSSYQHIHRLLSEDFNAEIIPGIPSITSAADVLGKPLCEDDDVLTILPGTLPHSELVARLSDSDGAVVMKLGRTFDKVRKAMIEAGVADRAHVVVRVGMADQHSVPVMEADPQAIPYFSVAVVPSITDTNGDSGDKQQGEVVVVGLGPGGHRWTTPEVMAELKQATDIVGYSTYVNRVPQQAGQRRHLSDNKVEAERAAMALDMAKQGRKVAVVSSGDPGVFAMAAAVLETADDDQWREVPVRIIPGMTAAQAVASRVGAPLGHDFGMISLSNRLKPFEIVEKRIRALASADMAFACYNPASKERRWQVARMKEIVSEYQAGSTPVIVARAVGSDQETVTVTTLEDFDPDIVDMRTMVIIGASTTKTYQGGDGVRVFTSRWYT | not soluble
MRLTSKGRYAVTAMLDVALNSEAGPVPLADISERQGISLSYLEQLFSRLRKNGLVSSVRGPGGGYLLGKDASSIAVGEVISAVDESVDATRCQGKGGCQGGDKCLTHALWRDLSDRLTGFLNNITLGELVNNQEVLDVSGRQHTHDAPRTRTQDAIDVKLRA | soluble
STSPTATKYDVFLSFRGVDTRRNFISFLYKEFVRRKIRTFKDDKELENGRRISPELKRAIEESKFAVVVVSVNYAASPWCLDELVKIMDFENKGSITVMPIFYGVDPCHLRRQIGDVAEQFKKHEAREEDHEKVASWRRALTSLASISGDCSSKCEDEAKLVDEIADKISKNLMTVTTISNGKNLVGIDTHMKALNKKLDLNSNKSLRVVGIWARGYNGRSALAKYVYQDICHHFDSHCFLGSVKRISQGRHLSHLHEEFLIRIQGSKHNLKDQKVLLVADDVYKLEQLDALAEDFNGFGPGSVVIITTQDKHLFVSAGIKLVYEVELLKFQKVCELFRQFAFKKRDISAAVKLVYYRATNWLGCLSGRSG | soluble
MLVAQHTVYFPDAFLTQMREAMPSTLSFDDFLAACQRPLRRSIRVNTLKTSVADFLRLTAPYGWTLTPIPWCEEGFWIERDDEDALPLGSTAEHLSGLFYIQEASSMLPVAALFADGNAPQRVMDVAAAPGSKTTQIAARMNNEGAILANEFSASRVKVLHANISRCGISNVALTHFDGRVFGAALPEMFDAILLDAPCSGEGVVRKDPDALKNWSPESNQEIAATQRELIDSAFHALRSGGTLVYSTCTLNREENESVCLWLKETYPDAVEFLPLGDLFPGANKALTEEGFLHVFPQIYDCEGFFVARLRKTQAIPALPTPKYKVGNFPFSPVKDREAAQIRQAAASVGLNWDGNLRLWQRDKEVWLFPVGIEALIGKVRFSRLGIKLAETHNKGYRWQHEAVIALASPDNENAFELTPQEAEEWYRGRDVYPQAAPVADDVLVTFQHQPIGLAKRIGSRLKNSYPRELVRDGKLFTSNA | soluble
MGISDNDVQKQLRHMMAFIEQEANEKAEEIDAKAEEEFNIEKGRLVQQQRQKIMEFFEKKEKQVELQRKIQASNSLNAGRLRCLKAREDHIGAVLDEARSNLSRISGDAARYPAILKGLVMQGLLQLLEKEVVLRCREKDLRLVEQLLPECLDGLQKEWGSTTKVVLDKQNFLPSESAGGVELSARAGKIKVSSTLESRLELIANQIVPQVRTALFGPNPNRSFFD | not soluble
MGSDKIHHHHHHMKSFQLVATAASGLEAIVGKEVARLGYDPKVENGKVYFEGDLSAIARANLWLRVADRVKIVVGVFKATTFDELFEKTKALPWEDYLPLDAQFPVAGKSVKSTLYSVPDCQAIVKKAIVNRVSEKYRRSGRLMETGALFKLEVSILKDEVTLTIDTSGAGLHKRGYRLAQGSAPIKETMAAALVLLTSWHPDRPFYDPVCGSGTIPIEAALIGQNIAPGFNREFVSETWDWMPKQVWADARQEAEDLANYDQPLNIIGGDIDARLIEIAKQNAVEAGLGDLITFRQLQVADFQTEDEYGVVVANPPYGERLEDEEAVRQLYREMGIVYKRMPTWSVYVLTSYELFEEVYGKKATKKRKLYNGYLRTDLYQYWGPRKPRPKKED | not soluble
MSLTSPSELRSGKTHRDENFPVASWIIHPRHRDLILAFYNFVRTADDIADHEMLDGDTKLEYLDLLEAELLGRGETQPEAVHLRRALAERGMPPRHALDLLTAFRMDVTKLRYEDWDEVIHYCRYSAMPVGRFMLDVHGESTTTWQASDALCAGLQINNHLQDCGKDYRTLNRVYLPRDVLDAAGAKVEDLGLQKSSPALLKCLQGLAVRTASLLGDGRPLAAEIKDYRLGLEVSVIQAYADRIVRMLQTRDPLSERVHLKPIEFVIASFGAMSSEIVRRSEGHHHHHH | soluble
MSHIFDASVLAPHIPSNLPDNFKVRPLAKDDFSKGYVDLLSQLTSVGNLDQEAFEKRFEAMRTSVPNYHIVVIEDSNSQKVVASASLVVEMKFIHGAGSRGRVEDVVVDTEMRRQKLGAVLLKTLVSLGKSLGVYKISLECVPELLPFYSQFGFQDDCNFMTQRF | soluble
MSLQYESHSQLIIKSSDGGSSFDPSSLLMAAGVSGASGGTESQLVEAYIQSADMIKYLDETIGLREHYMSDKADMFSGLSSSHKQEDFYKFYLDHIEVSVDSASSVISLRTRAFDAEYAKIINQAIVDKAEEFINNINNDLAKSKLTFAKGEHEIVEQKLQQAKTEILSFQSKYNVLDPSAEGAAFQQIAFSLQATLAQKKAELSTMSTMMSNVAPEVINIKREIAALQKEVEKQKERISTAEGESEALSVSELMAQYSNLQVQLQLAIQAYSSSLITLENARVEAYQKLQHLVTVESPTLPDDNAYPTEGHHHHHH | soluble
GPGSMPPKKKVERKEEQVFVEENGSYVHQREMARYTGGVRRLTDSNFCCRHGQGTYSSPLIHYEGNWSEDEMHGNGTLRFLVSGDSYTGQFVHGVMEGCGTYIWASGAMYDGGWRGNRMHGLGTYTDVGGKVWSGKFYNGSGPGLTPCVTTGGGVAAADKRDVLKDEKEG | not soluble
QLFSNNLLQENAHKYVREVIGSIPNTQVIRDQLLEENNRKHIEVVLIGATVSPAQIDSAKTKLSSYGLSGVELNIKQGFGYEQEETDVNELKSVLLKDLYDNGEKIIRNQQRQIDSLRNVLNFYNRFSSMESEIAQELQ | not soluble
MLGTIKPNYWIRKLSTKTSYGYRIDARAYVKVVRKTYHFLWKDSEEIVIFNPNADVGGLLYIGGLEHHHHHH | not soluble
MANSFTFWNDCVEPEDLEEMWMDPAVSAEWIDVGETKGQKVHLSRDPDGQPYLTQTEMRAVSDITVRRHFDSILDSEMICAIAELESDRKPLIMRYSKKTKETGLGILQVFEKTAAWLAGGQGYQAYNVDDNPDLLHKPFINVYFGAAYLKWLTDYQNNQRSEEFVVRAYNGGTKKATHKSTLPYWKRYLAVKESLPSRKHGDAGPSSFRPTNPASPGSNTDFTYWDSRASPEDMEDMWNQSEICKEWTKSKEERGKVRFSQDGEKRPYLSRGELKAVAEIIVSKYFSTKGIRVPLVCAIADTVCMRFVNGIKKHVGILGVDYSTASWLYSELGYRAYRVDSADDLTKPFISMYFGVAYLVWLSEYEGSQRSNQFIVQAYMKGPDHVDLEESCPLWLKFEQALSYYEESKRDSGSCVIL | not soluble
MTENKGIMLAKSVQKHAGRAKEKILQNLGKVDRTADEIFDDHLNNFNRQQASANRLQKEFNNYIRCVRAAQAASKTLMDSVCEIYEPQWSGYDALQAQTGASESLWADFAHKLGDQVLIPLNTYTGQFPEMKKKVEKRNRKLIDYDGQRHSFQNLQANANKRKDDVKLTKGREQLEEARRTYEILNTELHDELPALYDSRILFLVTNLQTLFATEQVFHNETAKIYSELEAIVDKLATESQRGS | soluble
MGSDKIHHHHHHMTKAKYQQIEEILRRQITNGHYQEGDLIPKEFDLAEKYQVSRPTIRHAVQDLVNQGYLERRKHVGTIVKQTKIGQEFTHVLQSYNSEMSQKGLIAQTQVLFFKKEKASAEVAKALDLTENAPVYKLTRLRSADGNPIVLVTTYLPASKLSDFEKIDFTQQSLYQELEKRSLPIVHVKRKLEVKSADEMTANLLNIEEKVPIFYFHTYGYTKGEVPLEYSIAMYRGDENYFVIDLKR | not soluble
MTQERPSKLSFSIEETVWLNKGQEVKEILAMSLEPDIRIEEKQDHVYIKGGLRLLGEYVPTEEEATLDPTSAIQEQVSFRSVEEVTIDDEGKGSIQHFFPIDVTIPLSRIQKLDDIYVQVDSFDYDLPERSCIQLTADVSISGMTSEPPVSKQKAQSERPAAIDPLPKPPQLEPIPSTFSFEAKKPFVNEEAGAWNEGVQSRQTFKFQPADNENKLEEDVVVSNEEQAHEGEPIEESKADQAKVEESTASVQKQQEENHQQEVTSVANQDETAEGQVNEGNAIEPAMMRGEVDVEHYDSESVEEEENPTKIQLGVQREEVAIDEESQEDLGEDTDEPKGHREENALYLTKMMTNGEEEFSKLKMCIIQENESLDMIAERYDISTSHLIRFNRLTEERVEEGQILYIPVPSHQSKEGLEHHHHHH | soluble
MGHHHHHHGGHMSLDEFDLIHSITPRTIHHSSVDVGIGDDAALYTAKHGVQEIVCVDTMVEDVHFKLHYSSPEDIGYKALAVNISDIAAMGGIPKFYLVSLAVPSKWTESEIKAMYEGMNELAKLYHMDLIGGDTVSTADKLVVTVTVIGEIEKGQACLRSLAKPNDIVFVTGEIGSSAAGLSLLLEETNPQNSSVETDYFIHRHKRPEPRVSVGRLCSIFKRAALNDVSDGLASELNEIAEASCVSIEIVESMLPIHSDLPKLHPNWKEWALFGGEDFELTGTVSNEEWEVLKQECAALHLPITKIGYVREKTKSKVILKTDQTSMILEKKGYNHFEGGS | soluble
MNNHNCFLTPLQQKFMQILSDYERDPKSIQIHEESDQMDVVISYFKLLLAEKSRLLQYGQANFSVHLIDEEIGRLFMAPISMADIGILEECGREALRFTDLGAMFSDSDDSMHSDEDEVTLTESIRIPVETYPTYNFIGRIIGPRGTTAKQLEKDTGCRIMIRGNHSNKMYGNALHKTHGDGSQDAIDLPLRVIVETSGPRREATARITAALETVQVLLVPPPDGRDELKRRQLVELAIMNGTYRPSCSRIDHN | not soluble
